Data published in IntAct's records for PubMed 12852788.

B1: Lymphocyte antigen 6 complex locus protein G6f (Homo sapiens), Q5SQ64 (parent)
chain: MAVLFLLLFLCGTPQAADNMQAIYVALGEAVELPCPSPPTLHGDEHLSWFCSPAAGSFTTLVAQVQVGRPAPDPGKPGRESRLRLLGNYSLWLEGSKEEDAGRYWCAVLGQHHNYQNWRVYDVLVLKGSQLSARAADGSPCNVLLCSVVPSRRMDSVTWQEGKGPVRGRVQSFWGSEAALLLVCPGEGLSEPRSRRPRIIRCLMTHNKGVSFSLAASIDASPALCAPSTGWDMPWILMLLLTMGQGVVILALSIVLWRQRVRGAPGRDASIPQFKPEIQVYENIHLARLGPPAHKPR

Variants of: B1
Conditions: with grb7_human GRB7, Q14451
Sequence of grb7_human GRB7, Q14451 (Q14451 whole entry): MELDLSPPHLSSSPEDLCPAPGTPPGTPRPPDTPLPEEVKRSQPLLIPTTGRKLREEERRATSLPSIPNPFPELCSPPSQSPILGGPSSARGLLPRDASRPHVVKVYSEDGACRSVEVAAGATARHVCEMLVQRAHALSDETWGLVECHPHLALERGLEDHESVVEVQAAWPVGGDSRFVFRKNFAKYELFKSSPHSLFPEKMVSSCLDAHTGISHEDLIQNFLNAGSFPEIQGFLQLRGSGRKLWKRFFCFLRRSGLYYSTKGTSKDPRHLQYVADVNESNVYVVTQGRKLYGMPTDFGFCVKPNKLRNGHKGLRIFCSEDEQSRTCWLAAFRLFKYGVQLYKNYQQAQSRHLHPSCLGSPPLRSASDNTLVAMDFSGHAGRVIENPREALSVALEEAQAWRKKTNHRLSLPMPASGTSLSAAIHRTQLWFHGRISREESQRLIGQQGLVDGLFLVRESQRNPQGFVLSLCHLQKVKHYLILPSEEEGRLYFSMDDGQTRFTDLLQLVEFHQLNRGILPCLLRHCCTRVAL

Row | effect of a mutation on the interaction | Variant
1 | disrupting interaction strength | Y281F

Variants of: B1
Conditions: with grb2_human GRB2, P62993

Row | effect of a mutation on the interaction | Variant
2 | disrupting interaction strength | Y281F
